Laboratory results published in article PMC5550427, “A family of archaea-like carboxylesterases preferentially expressed in the symbiotic phase of the mycorrhizal fungus Tuber melanosporum” (Scientific Reports, 2017).

Legend:
TmelEST3 [1] = tested on: T1, TmelEST3; test: pNP release at […] nm, Michaelis-Menten fit; format: biochemical, Tuber melanosporum; conditions: 25 mM Na-phosphate pH 7.0, 25 °C; Triton X-100 stabilized enzyme
T1 construct: signal peptide (first 18 residues) removed; N-terminal 6xHis cut with thrombin; E. coli BL21-CodonPlus(DE3)-RIL; ~35 kDa subunit, dimer (~65 kDa); salt-bridge residues Glu291, Arg304

TmelEST1 [2] = tested on: T2, TmelEST1; test: pNP release at […] nm, Michaelis-Menten fit; format: biochemical, Tuber melanosporum; conditions: 25 mM Na-phosphate pH 7.0, 25 °C; Triton X-100 stabilized enzyme
T2 construct: signal peptide (first 18 residues) removed; N-terminal 6xHis cut with thrombin; E. coli BL21-CodonPlus(DE3)-RIL; ~35 kDa subunit, dimer (~65 kDa); salt-bridge residues Glu284, Arg297; Arg242

[3] = molecular target: TmelEST1 (Tuber melanosporum); test: SEC; Superdex 200 HR10/30, 200 µg purified protein per run, 25 mM Tris-HCl pH 7.5, 150 mM NaCl, non-denaturing; size unchanged on β-mercaptoethanol supplementation
TmelEST1 [4] = tested on: T2, TmelEST1; test: pH-shift assay with phenol red, A560; format: biochemical, Tuber melanosporum; conditions: 2 mM Tris-HCl pH 8, 25 °C; 0.25-5 mM substrate; read-out: apparent Km
TmelEST3 [5] = tested on: T1, TmelEST3; test: pH-shift assay with phenol red, A560; format: biochemical, Tuber melanosporum; conditions: 2 mM Tris-HCl pH 8, 25 °C; 1-30 mM substrate; preliminary data; read-out: estimated Km
[6] = molecular target: TmelEST2 (Tuber melanosporum); test: SEC; Superdex 200 HR10/30, 200 µg purified protein per run, 25 mM Tris-HCl pH 7.5, 150 mM NaCl, non-denaturing; size unchanged on β-mercaptoethanol supplementation
[7] = molecular target: TmelEST3 (Tuber melanosporum); test: as above
purified protein [8] = substrate: CCCC(=O)Oc1ccc([N+](=O)[O-])cc1; test: purified protein; format: biochemical, Tuber melanosporum; conditions: 25 mM Na-phosphate pH 7.0, 25 °C, Triton X-100 stabilized enzyme
purified protein [9] = substrate: CCCCC(=O)Oc1ccc([N+](=O)[O-])cc1; test: purified protein; format: biochemical, Tuber melanosporum; conditions: 25 mM Na-phosphate pH 7.0, 25 °C, Triton X-100 stabilized enzyme
[10] = substrate: COC(=O)c1ccccc1O; test: pH-shift assay with phenol red, A560; format: biochemical, Tuber melanosporum; conditions: 2 mM Tris-HCl pH 8, 25 °C, 1-30 mM substrate, preliminary data

`CCCCC(=O)Oc1ccc([N+](=O)[O-])cc1` [C5, pNP-valerate] gave a Km (TmelEST3 [1]) of 137 ± 20 µM and a Km (TmelEST1 [2]) of 160 ± 20 µM.

For TmelEST1 (enzyme), the stoichiometry N [3] was 2.

For `CCOC(=O)/C=C/c1ccc(O)c(OC)c1` [ethyl ferulate], the Km (TmelEST1 [4]) was 880 µM.

`COC(=O)Cc1c[nH]c2ccccc12` [indole-3-acetic methyl ester] was tested, and the Km (TmelEST3 [5]) was ~3350 µM.

In the case of TmelEST2 (enzyme), the stoichiometry N [6] is reported as 2.

`CCCC(=O)Oc1ccc([N+](=O)[O-])cc1` [C4, p-nitrophenyl-butyrate] was tested, and the Km (TmelEST3 [1]) was 109 ± 6 µM and the Km (TmelEST1 [2]) was 140 ± 14 µM.

TmelEST3 (enzyme) was tested, and the stoichiometry N [7] was 2.

B1: TmelEST2 (Tuber melanosporum Mel28) (protein)
chain: ETPAPSCPVTNVTTPQLDPITQAYADAISSRPSLFAFPLPEIRDGYQSNVSDPSTEFTTKILSLPVGPTGNVTAYLYKPVSGEREKGKDLLPVIAYFHGGGWVFGGPKSYRGLITNLIRESGAAVFFVDYTLTPKVAYPVPNEQCYAAVQWLLEHGEKLGVDPTNMGFGGDSAGGELSSSVSLLSIKRKTPLPKFQVLIYPATDLACESATFKEFPNGPGLTTDEIRFAASLFTPDPKSRLEDVASPGRASDEDLAKFPETLIVVAEVDPIRQQGEDFGRRLQKLGVRAAIIRVLGTIHGFASIDVLSEAPGAKATIELIGYKFKKALH
notes: signal peptide (first 18 residues) removed; N-terminal 6xHis cut with thrombin; E. coli BL21-CodonPlus(DE3)-RIL; ~35 kDa subunit, dimer (~65 kDa); structure residues 34-347; triad Ser190, Asp287, His317
For B1, the Km (purified protein [8]) was 49 ± 8 µM, the Vmax (purified protein [8]) was 3840 µmol/min/mg and the kcat (purified protein [8]) was 2300 s⁻¹. It also gave a kcat/Km (purified protein [8]) of 4.7e+07 M⁻¹ s⁻¹, a Km (purified protein [9]) of 44 ± 7 µM and a Vmax (purified protein [9]) of 4790 µmol/min/mg. The kcat (purified protein [9]) was 2870 s⁻¹, the kcat/Km (purified protein [9]) was 6.53e+07 M⁻¹ s⁻¹ and the Km [10] was 750 µM. For the same molecule, the kcat [10] was 1 s⁻¹.
